From patent US20220227864A1 (AVA LIFESCIENCE, published 2022)

Tests used:
[1] = molecular target: T1, CLL subset 2 typical BCR on TKO cells (FIG. 1B); assay: FACS binding assay on TKO cells, fluorescently labeled anti-mouse IgG
T1 construct: The light chain is the VL3-21 variant and carries R110; also called CLL subset 2 BCR; BCR of interest
Description: (§1) For the screening procedure, different vectors for the following heavy chain (HC) and light chain (LC) combinations of the corresponding CLL-BCRs were used in the previous transformation, and these combinations were used on the surface of the BCR reconstitution system: [0080] Control (transformation vector without BCR) (see FIG. 1A). [0081] Vector with HC/LC (VL3-21) typical of CLL subset 2 (see FIG. 1B). [0082] Vector with a non-CLL subset 2 HC/LC typical for CLL subset 2 (VL3-21; without target motif R110G) (see FIG. 1C) [0083] Vector with a HC typical for CLL subset 2/a non-CLL subset 2 LC (see FIG. 1D) [0084] Vector with a non-CLL subset 2 HC/a non-CLL subset 2 LC (see FIG. 1E) [0085] Vector with HC/LC typical for CLL subset 2 (VL3-21; including mutation R110G (target motif)) (see FIG. 1F).
(§2) In the first round of selection, supernatants from multiple clones were combined and examined with respect to their binding profile to the selection matrix. A positive binding profile is given if a specific binding to the “BCR-of-Interest” is shown. Groups showing such a profile were singulated, and the binding profile of each clone was characterized again on the selection matrix in a second round of selection. Binding of the monoclonal antibodies was verified using a FACS binding assay with a fluorescently labeled anti-mouse IgG antibody. […]

[2] = molecular target: T1, CLL subset 2 typical BCR on TKO cells …; assay: FACS on TKO cells expressing the BCR, hybridoma supernatant
Description: as §1, §2

T1 sequence (heavy, as listed by the source, chain 1 of 2): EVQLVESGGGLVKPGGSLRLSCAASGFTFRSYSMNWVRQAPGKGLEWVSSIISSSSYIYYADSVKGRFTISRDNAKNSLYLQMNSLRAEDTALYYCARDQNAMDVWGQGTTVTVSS
T1 sequence (light, as listed by the source, chain 2 of 2): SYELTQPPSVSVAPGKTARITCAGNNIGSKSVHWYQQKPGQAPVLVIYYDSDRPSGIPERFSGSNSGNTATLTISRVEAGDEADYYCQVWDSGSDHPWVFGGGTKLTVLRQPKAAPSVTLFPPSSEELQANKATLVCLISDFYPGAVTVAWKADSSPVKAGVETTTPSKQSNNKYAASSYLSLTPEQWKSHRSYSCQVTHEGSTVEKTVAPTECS

Row | binding result [1] | binding result [2] | Binder
1 | binds |  | AVA-mAb01 (antibody, V domains shown, Murine monoclonal antibody from a hybridoma, detected with anti-mouse IgG; also called specific monoclonal antibody against subset-2; the selected antibody) VH: QVQLQQSGPGLVQPSQSLSITCTVSGFSLTSYGIHWVRQSPGKGLEWLGVIWRGGGTDSNAAFMSRLSITKDNSKSQVFFKMNSLQADDTAIYYCARSRYDEEESMNYWGQGTSVTVSS VL: QIVLTQSPASLSASVGETVTITCRASGNIHSYLAWYQQKQGKSPQLLVYNAKTLADGVPSRFSGSGSGTQYSLKINSLQPEDFGSYYCQHFWNTPPTFGAGTKLELK
2 |  | binds | AVA-mAb02 (antibody, V domains shown, Murine monoclonal antibody; Tested as hybridoma supernatant and detected with anti-mouse IgG; also called VL3-21 specific antibody) VH: QVQLQQPGAELVRPGVSVKISCKGSGYTFTDYAIHWVKQSHAKSLEWIGVISTYYGDSNYNQKFKGKATMTVNKSSSTAYMELARLTSDDSAIYYCSRDTSNFDYWGQGTTLTVSS VL: DIQMTQSPSSMYASLGERVTITCKASQDINSHLTWFQQKPGKSPKTLIYRANRLVDGVPSRFSGSGSGQDYSLTISSLEYEDMGIYYCLQYDEFPRTFGGGTKLEIK
